The supplement of paper PMC7125110
± gives the standard error. Variants at the floor of the assay were thinned out.

B1: glmS ribozyme (parent)
chain: AUAAAAGCGCCAGAACUACAGAAAUGUAGUUGACGAGGAGGAGGUUUAUCGAAUUUUCGGCGGAUGCCUCCAAA

How the values were obtained:
Conditions in all cases: with glucosamine-6-phosphate
[1] = variants of: B1; test: self-cleavage kobs at 160 uM GlcN6P; higher = faster cleavage; RNA array
Summary of the method: (§1)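 Using a hybridised Cy3 probe at 37 °C, barcoded ribozyme variants transcribed in situ by E. coli RNA polymerase on sequenced MiSeq chips were monitored across tiles imaged over ~14 h. The flow contained glucosamine-6-phosphate from 40 μM to 10 mM in HEPES/KCl/Mg(OAc)2 buffer. Signals were normalised to baseline and to non-cleaving reference variants before per-tile medians were fit to one- or two-exponential decays to yield kobs. Weighted Michaelis–Menten fits across concentrations gave kcat and KM.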

[2] = variants of: B1; test: self-cleavage kobs at 640 uM GlcN6P; higher = faster cleavage; RNA array
Summary of the method: as §1

[3] = variants of: B1; test: self-cleavage kobs at 2500 uM GlcN6P; higher = faster cleavage; RNA array
Summary of the method: as §1

[4] = variants of: B1; test: self-cleavage kobs at 10000 uM GlcN6P; higher = faster cleavage; RNA array
Summary of the method: as §1

Variant | self-cleavage kobs at 160 uM GlcN6P [1] [s⁻¹] | self-cleavage kobs at 640 uM GlcN6P [2] [s⁻¹] | self-cleavage kobs at 2500 uM GlcN6P [3] [s⁻¹] | self-cleavage kobs at 10000 uM GlcN6P [4] [s⁻¹]
G35C A36G U49A | < 1e-05 | < 1e-05 | < 1e-05 | 
G40A G51C | < 1e-05 | < 1e-05 |  | < 1e-05
G32C A33U A52G | < 1e-05 | < 1e-05 | < 1e-05 | 
A33G A48C A52G | < 1e-05 | < 1e-05 |  | 
G43C G60C | < 1e-05 | < 1e-05 | < 1e-05 | 
G40A G44U C61A | < 1e-05 | < 1e-05 |  | < 1e-05
A33U G37A | < 1e-05 |  |  | 
G32U G38U G43U A53U | < 1e-05 | < 1e-05 |  | 
G38U A52U | < 1e-05 | < 1e-05 |  | < 1e-05
A36U U47A G66U C70G C71U | 4.68e-05 ± 2.2e-05 |  | 0.00104 ± 0.00043 | 
G38U G44C U56C U57G C70U | < 1e-05 |  | < 1e-05 | 
G40C A64U | < 1e-05 | < 1e-05 |  | 
A33U G37C U46C | < 1e-05 | < 1e-05 | < 1e-05 | 
A36C U46A | < 1e-05 |  | < 1e-05 | < 1e-05
G35U A53C | < 1e-05 |  | < 1e-05 | < 1e-05
A36U G41A A42U G43U | < 1e-05 | < 1e-05 | < 1e-05 | 
G32C A48G G51U | < 1e-05 | < 1e-05 | < 1e-05 | 
C34U G41C G66U | < 1e-05 | < 1e-05 | < 1e-05 | 
G43A A52U | < 1e-05 | < 1e-05 | < 1e-05 | 
A42C U69A | 5.29e-05 ± 2.2e-05 | 0.000125 ± 3.8e-05 | 0.000182 ± 4.1e-05 | 0.0008 ± 0.00018
A39G G41A G59U G60U | < 1e-05 |  |  | 
C34U G40C U47A C67G | < 1e-05 |  |  | 
A39C C61U C71U | < 1e-05 | < 1e-05 | < 1e-05 | 
G37U C70U C71A | < 1e-05 |  |  | 

Variant | self-cleavage kobs at 160 uM GlcN6P [1] [s⁻¹] | self-cleavage kobs at 640 uM GlcN6P [2] [s⁻¹] | self-cleavage kobs at 2500 uM GlcN6P [3] [s⁻¹] | self-cleavage kobs at 10000 uM GlcN6P [4] [s⁻¹]
G32A U56G | 9.78e-05 ± 3.6e-05 | 0.000151 ± 2e-05 | 0.000254 ± 3.2e-05 | 0.000906 ± 8.9e-05
U31G G32A | 2.88e-05 ± 1.4e-05 | 0.000366 ± 7.2e-05 | 0.000689 ± 0.00016 | 0.00185 ± 0.00031
G35C A36U | < 1e-05 | < 1e-05 | < 1e-05 | < 1e-05
G35C A36C | < 1e-05 | < 1e-05 |  | < 1e-05
A39G G43U C58A | < 1e-05 | < 1e-05 | < 1e-05 | 
G37A U46G A53G C61A C70A | < 1e-05 |  |  | 
U31C U45A C67A | 0.000102 ± 3e-05 | 0.000203 ± 4.8e-05 | 0.000723 ± 0.00023 | 
A42G G60A C68A | < 1e-05 |  |  | 
U31G G35C U46A C70G | < 1e-05 | < 1e-05 | < 1e-05 | 
G37A G44A U46C A48U C71U | < 1e-05 | < 1e-05 | < 1e-05 | 
C34A G38U A53C | < 1e-05 | < 1e-05 | < 1e-05 | 
G41C U46G U57C | < 1e-05 | < 1e-05 | < 1e-05 | 
G41U A52U U57C | < 1e-05 |  |  | 
G37U G44A A52U A53U | < 1e-05 | < 1e-05 | < 1e-05 | 
G43A U54C U69G | < 1e-05 | < 1e-05 |  | < 1e-05
G43C A52C U57C | < 1e-05 | < 1e-05 |  | 
G37C U65A | < 1e-05 | < 1e-05 |  | 
G37C U65C | < 1e-05 | < 1e-05 | < 1e-05 | 
G37C G43C U47C | < 1e-05 |  | < 1e-05 | 
A36G G60C | < 1e-05 | < 1e-05 | < 1e-05 | < 1e-05
A42C A48G U55A | < 1e-05 | < 1e-05 |  | 
U31G G51C U57C | < 1e-05 | < 1e-05 | < 1e-05 | 
A33U A36U | < 1e-05 | < 1e-05 | < 1e-05 | < 1e-05
